Laboratory results as given in patent US5037646A, “Processes for the treatment of vascular disease” (Genentech, Inc., priority 1990, dated 1991).
Where “and” joins values, the source holds several entries; their conditions need not be identical. Identical values can stand only once. Like-named read-outs stand apart in the source and are kept apart here.

What was measured:
[1] = system: plasminogen; assay: In vitro plasminogen activation, two-stage assay with plasmin specific substrate S-2251; format: biochemical
Protocol: The ability of t-PA to activate plasminogen can be measured in an in vitro assay by preincubating t-PA and plasminogen and then adding the plasmin specific substrate H-D-valyl-H-leucyl-H-lysine-p-nitronilide (S-2251). The maximum rate of this reaction is observed in the presence of fibrin(ogen) or fragments of fibrin(ogen) which act as stimulators of the reaction.
The plasmin specific substrate S-2251 was used in a two-stage assay to measure the ability of the sample to activate plasminogen. Fibrin clots were made by incubating the sample with 0.02 ml of a 20 mg/ml fibrinogen solution with 1U of thrombin in a total volume of 0.12 ml of 0.05M Tris-HCl, 0.12M NaCl, 0.01% Tween 80, pH 7.4 for 30 min. at 37' C. Alternatively, the thrombin could be omitted and fibrinogen used as the stimulator. Glu-plasminogen solution, 0.03 ml of a 2.1 mg/ml solution, was then added. After 10 min at 37' C., 0.35 ml of 2.86 mM S-2251 in 0.037M Tris, 0.86 NaCl, 0.007% Tween 80, pH 7.4) were added. This mixture was incubated for five minutes then the reaction was stopped by the addition of 0.1 ml of 50% glacial acetic acid. Absorbance at 405 nm was measured. The activity was expressed as the change in absorbance per nanogram per minute in the presence of substrate.
The stimulation is the ratio of the specific activity of the sample containing fibrin and the specific activity of the sample not containing fibrin.

[2] = Pharmacokinetics of I-125 labeled t-PA, i.v. bolus in rabbits; format: in vivo, rabbit; set-up: B0 / t1/2b / A0 / AUMC × 10^- 6: unit not given here; details: carrier 1 mg/kg cold rt-PA; for CL (clearance rate): natural t-PA
Protocol: Comparative pharmacokinetic studies were performed in rabbits. I-125 labeled test t-PA, either wild type or N44 variant, 5 uCi/kg with a specific activity of 5 to 10 uCi/ug, and carrier wild type t-PA, 1.0 mg/kg, were coinjected, serial blood samples were collected, plasma prepared and the TCA (trichloroacetic acid) precipitable counts were determined at each time point. TCA precipitation was used in order to remove any small metabolites which appear at later times due to degradation of t-PA by the liver. The plasma concentration time curve for rt-PA was fit to a biexponential equation C-Aexp(-alphaXt)+Bexp(-betaXt). The curve for the des (1-44) rt-PA was fit to a monoexponential equation C-Aexp(-alphaXt). The clearance (Cl) was calculated by the formula Cl-DOSE/AUC, where AUC is the area under the plasma concentration time curve. […]

[3] = system: fibrin clot; assay: In vitro fibrin clot lysis assay with saturating plasminogen; format: biochemical; details: t-PA = 1.0
Text: In order to further compare the ability of des 1-44 t-PA to activate plasminogen in the presence of fibrin(ogen), it was compared to t-PA in an assay which measures the ability of t-PA and saturating plasminogen to lyse a fibrin clot.

[4] = cited from earlier work
[5] = rabbits; cited from earlier work
[6] = In vitro protease amidolytic assay with S-2288 substrate; format: biochemical; details: S-2288, 23 nM protein, pH 7.4
Protocol: The activity of des (1-44) t-PA in a protease amidolytic assay was compared to that of natural t-PA using the S-2288 paranitroanilide chromogenic substrate (Helena Labs). The S-2288 paranitroanilide substrate provides a direct measurement of protease amidolytic activity. The kinetic constants for t-PA and des 1-44 t-PA were determined with the S-2288 substrate using an H-P diode array spectrophotometer (HP8451-A). Hydrolysis of the substrate was measured continuously at two substrate concentrations (1.0 mM and 0.1 mM) while the protein concentrations were held constant at 23 nM in a buffer composed of 0.05M Tris-HCl, 0.12M NaCl, 0.01% Tween 80, pH 7.4. Using the differential form of the Michaelis-Menten equation and a non-linear regression the Km and Vmax were calculated from the curves of the progress of the reaction.

[7] = monkeys; cited from earlier work
[8] = individual rabbits #A, #C, #E, #G

Substance: natural t-PA: human tissue plasminogen activator, amino acids 1-527, whether obtained from natural or recombinant sources
- Stim (stimulation: specific activity with / without) ([1]; With Fibrin Clots): 100
- rel (relative activity) ([1]; With Fibrin Clots, relative to t-PA): 100%
- Stim (stimulation: specific activity with / without) ([1]; With Fibrinogen): 100
- +Fgn rel (relative activity) ([1]; With Fibrinogen, relative to t-PA): 100%
- increase of activity in the presence of fibrin ([1]; in the presence of fibrin): about 50 fold
- AUMC × 10^- 6 ([2]; MEAN): 601.493
- VDSS ([2]; MEAN): 0.213336 L/kg
- t1/2b ([2]; MEAN): 28.868
- A0 ([2]; MEAN, biexponential fit): 275201
- B0 ([2]; MEAN, biexponential fit): 30352.649
- t1/2a ([2]; MEAN, unit from b248, listed as rT-PA): 3.067 min
- t1/2a ([2]; MEAN, unit from b248, listed as rt-PA): about 3.1 minutes
- CL (clearance rate) ([2]; MEAN, listed as rT-PA): 8.357 mL/min/kg
- CL (clearance rate) ([2]; MEAN, listed as rt-PA): about 8.4 ml/min/kg
- A0 [2, 8]: 247990 and 306059 and 255904 and 290852
- AUMC × 10^- 6 [2, 8]: 789.510 and 452.925 and 637.710 and 525.828
- B0 [2, 8]: 30144.320 and 32920.033 and 27005.306 and 31340.936
- CL [2, 8]: 7.063 mL/min/kg and 9.222 mL/min/kg and 8.567 mL/min/kg and 8.577 mL/min/kg
- VDSS [2, 8]: 0.209553 L/kg and 0.197899 L/kg and 0.232427 L/kg and 0.213466 L/kg
- t1/2a [2, 8]: 3.716 min and 2.645 min and 3.334 min and 2.575 min
- t1/2b [2, 8]: 33.236 and 23.987 and 31.782 and 26.467
- Clot lysis (relative units) [3]: 1.0 relative units
- t1/2b ([4]; beta phase): about 30 minutes
- t1/2a ([4]; dominant alpha phase): about 2.2 minutes
- t1/2a component ([4]; where Co=100): about 95%
- t1/2b component ([4]; where Co=100): about 5%
- nominal half-life [5]: about 2 minutes
- kcat [6]: 17.9 s⁻¹
- nominal half-life [7]: ~3.5 min
